Measured values published in the supplement of paper PMC9732359.
± gives the uncertainty stated by the source.

Test: protein stability index of a GFP-peptide fusion (yeast GPS) (PSI 1-4); higher = more stable; sorted into four equal gates, so the index is relative within each strain
Procedure, shortened: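 Yeast carrying a pooled library were grown to mid-log phase in leucine-free medium. Each library plasmid expresses Cherry and has a tiled 17-residue yeast protein peptide fused downstream of GFP. Cells were sorted into four equal gates by GFP/Cherry ratio, and plasmids from each gate were PCR-amplified, Illumina-sequenced and assigned to strains by barcode. Summing, across gates, the read frequency times the gate number gave each peptide's protein stability index.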

Row | Sequence | protein stability index (doa10∆) | protein stability index (pdr5∆) | protein stability index (san1∆) | protein stability index (ubr1∆)
1 | PTVKYNRKVRAGRGFTL [RPL13A] | 2.62 ± 0.059 | 2.87 ± 0.058 | 2.94 ± 0.045 | 2.78 ± 0.053
2 | CIIFITFEFINIAFDAH [YML031W/NDC1] | 1.23 ± 0.043 | 1.44 ± 0.044 | 1.38 ± 0.085 | 1.32 ± 0.032
3 | AVEQLAGCKIDNVDDIG [YDL088C/ASM4] | 2.86 ± 0.075 | 2.64 ± 0.071 | 2.56 ± 0.08 | 2.61 ± 0.047
4 | IAASYHYPEIEDLVDRI [RPP0] |  | 1.89 ± 0.16 |  | 
5 | EHGMNAPSVPEFIYLTK [SNF2] | 3.21 ± 0.092 | 3.28 ± 0.077 | 2.91 ± 0.069 | 3.15 ± 0.059
6 | KLELINRYAYVLSSLMF [LRP1] | 2.21 ± 0.05 | 2.31 ± 0.049 | 1.94 ± 0.064 | 2.65 ± 0.046
7 | SASKHEYSDNFPVSLSQ [SIR4] | 3 ± 0.045 | 2.71 ± 0.039 | 3.06 ± 0.04 | 3.041 ± 0.029
8 | LAHVDQIVDIRNKRAVQ [YJL039C/NUP192] | 2.35 ± 0.13 | 2.55 ± 0.12 | 2.76 ± 0.12 | 2.71 ± 0.13
9 | KKAEKAARKAEKAKSAG [RPL24A] | 3.34 ± 0.066 | 3.32 ± 0.053 | 3.53 ± 0.046 | 3.48 ± 0.055
10 | RKMTTDDDINWQELARS [RPT5] | 1.79 ± 0.055 | 2.93 ± 0.072 | 3.16 ± 0.097 | 3 ± 0.07
11 | DQNNKKMVGLRGFNNQI [SNF2] | 3.35 ± 0.065 | 3.22 ± 0.072 | 3.2 ± 0.072 | 3.37 ± 0.044
12 | LNLTGPKVPEDIYKSHL [RPN1] | 2.9 ± 0.15 | 3.11 ± 0.11 | 2.85 ± 0.1 | 2.9 ± 0.26
13 | VYGEGTSRVTGILLLDS [YJL039C/NUP192] | 3.19 ± 0.19 | 3.31 ± 0.091 |  | 3.44 ± 0.091
14 | LVQMYIGEGAKLVRDAF [RPT5] |  |  | 2.51 ± 0.27 | 
15 | QLDDEDFDLLNKTLTFE [FAS1] | 3.38 ± 0.12 | 3.58 ± 0.098 | 3.36 ± 0.069 | 3.16 ± 0.085
16 | MIFETIVDGKLKTEKIF [FAS1] | 1.8 ± 0.07 | 2.21 ± 0.12 | 1.89 ± 0.1 | 2.17 ± 0.08
17 | SFHVQKKTCSSCGYPSA [RPL37B] | 1.86 ± 0.08 | 2.18 ± 0.076 | 1.86 ± 0.12 | 2.19 ± 0.059
18 | TLDDLVTKWTNQLTESA [YJL041W/NSP1] | 2.76 ± 0.1 | 3 ± 0.099 | 2.85 ± 0.076 | 3.05 ± 0.061
19 | CLNTQRGDSTETSSFGS [RRI1] | 3.61 ± 0.14 | 3.25 ± 0.17 | 3.37 ± 0.084 | 3.56 ± 0.17
20 | TRLVQLREFRITHNTNI [GRR1] | 1.23 ± 0.11 | 1.16 ± 0.06 | 1.04 ± 0.26 | 1.38 ± 0.09
21 | LFLIIQCYKIYDLVILK [YMR129W/POM152] | 1.29 ± 0.063 | 1.2 ± 0.045 | 1.16 ± 0.085 | 1.16 ± 0.044
22 | YKVENVTLYWNNAKLLT [ESC2] | 1.71 ± 0.059 | 1.99 ± 0.051 | 1.71 ± 0.076 | 2.19 ± 0.043
23 | RNSPFWWTNSHHDGKLW [PRP8] | 2.55 ± 0.069 | 2.85 ± 0.06 | 2.68 ± 0.041 | 2.78 ± 0.049
24 | PIDDTMTLLTDSLRKLY [MTW1] | 1.89 ± 0.067 | 2.52 ± 0.062 | 1.73 ± 0.093 | 2.22 ± 0.052
25 | RIGTIVHKERHDGGFDL [RPS4A] |  | 2.54 ± 0.16 | 1.65 ± 0.17 | 1.99 ± 0.23
26 | VHSSSPSTSSNMDVGNP [GAL11] | 2.89 ± 0.071 | 2.75 ± 0.066 | 2.69 ± 0.075 | 3.14 ± 0.054
27 | CFVLGIASMSTVRASSL [SMC2] | 1.51 ± 0.056 | 1.86 ± 0.055 | 1.83 ± 0.072 | 1.94 ± 0.065

Row | Sequence | protein stability index (doa10∆) | protein stability index (pdr5∆) | protein stability index (san1∆) | protein stability index (ubr1∆)
28 | KAIELLEKALQGATNEG [SRP72] |  | 1.14 ± 0.18 |  | 1.18 ± 0.22
29 | NVNSRNQLVEPNRIKLS [SRB5] | 2.29 ± 0.061 | 2.43 ± 0.052 | 2.48 ± 0.059 | 2.19 ± 0.036
30 | ADVLVDRVVSSDSLDIA [SRP72] | 1.95 ± 0.056 | 1.58 ± 0.072 | 1.42 ± 0.12 | 1.81 ± 0.081
31 | TATNSKGEQIAIFPYQD [ECM29] | 2.44 ± 0.085 | 2.98 ± 0.12 | 3.29 ± 0.12 | 3.15 ± 0.15
32 | STFGFNNSAPNNTNNAN [YJL041W/NSP1] | 3.13 ± 0.042 | 3.18 ± 0.047 | 2.96 ± 0.039 | 3.19 ± 0.038
33 | NAKIIDAEVAQFLEQGL [SRP68] | 2.83 ± 0.057 | 2.59 ± 0.045 | 2.12 ± 0.073 | 3.08 ± 0.041
34 | LNSYWVNQDSTYKYFEV [RPL15A] | 3.23 ± 0.061 | 3.27 ± 0.076 | 3.32 ± 0.041 | 3.2 ± 0.058
35 | VAIACDLRLGSQSLGVS [PUP3] |  | 2.75 ± 0.26 | 2.85 ± 0.17 | 
36 | LDYVRTPAAATSPIDIR [SNF2] | 2.33 ± 0.056 | 2.45 ± 0.063 | 2.14 ± 0.077 | 2.36 ± 0.045
37 | GVERLIPVGDNTVVGIS [PRE4] | 2.96 ± 0.089 | 2.91 ± 0.081 | 2.84 ± 0.064 | 2.69 ± 0.086
38 | LYNFLHKYVLTLQLYMV [RGR1] | 2.04 ± 0.058 | 1.43 ± 0.042 | 1.78 ± 0.13 | 1.51 ± 0.039
39 | LFGAKPQNTTATTGGLF [YGR119C/NUP57] | 2.7 ± 0.084 | 3.06 ± 0.076 | 2.97 ± 0.12 | 2.59 ± 0.089
40 | STEEIEYIELEYRDLYT [YMR129W/POM152] | 2.56 ± 0.11 | 3.04 ± 0.14 | 2.94 ± 0.13 | 2.72 ± 0.05
41 | PSLEVASEYIETLGLKY [FAS1] | 3.02 ± 0.069 | 3.3 ± 0.082 | 3.21 ± 0.07 | 3.05 ± 0.067
42 | KPTEVNDSENNSSEEDK [ITC1] | 2.82 ± 0.058 | 2.74 ± 0.082 | 3.17 ± 0.052 | 3.3 ± 0.067
43 | ETYGSMEMSEKIQFILE [RPN5] | 2.41 ± 0.12 | 2.94 ± 0.082 | 2.53 ± 0.079 | 2.77 ± 0.079
44 | SHINTNVGDNNSTASSS [ARP7] | 2.68 ± 0.095 | 3.02 ± 0.067 | 2.9 ± 0.062 | 2.84 ± 0.066
45 | EYIDAEEEESILIAMQP [RPB2] | 3.37 ± 0.076 | 3.41 ± 0.091 | 3.13 ± 0.067 | 3.46 ± 0.091
46 | KNATDLQQAKLRESEIS [SMC3] | 3.17 ± 0.073 | 3.15 ± 0.071 | 3.11 ± 0.085 | 2.97 ± 0.068
47 | LDKLDEILYYQIKTLPE [AAR2] | 2.89 ± 0.13 | 2.97 ± 0.14 | 3 ± 0.13 | 3.25 ± 0.15
48 | VTVFLFMLILALFVFYS [COB] | 2.32 ± 0.067 | 1.8 ± 0.042 | 2.27 ± 0.057 | 1.99 ± 0.039
49 | GELVLDIEVPDVNALKF [SNF12] | 3.06 ± 0.22 | 3.55 ± 0.12 | 2.77 ± 0.077 | 3.15 ± 0.11
50 | ESSSEDDYEDQDDDDYV [IRR1] | 3.58 ± 0.16 | 3.52 ± 0.11 |  | 3.65 ± 0.16
51 | LSGGQKTVCAIALILAI [SMC3] |  | 1.94 ± 0.19 |  | 2.74 ± 0.12
52 | VDVAKDINVKDLKASQR [RPT6] | 3.35 ± 0.14 | 3.13 ± 0.11 | 2.63 ± 0.18 | 3.22 ± 0.098
53 | ENESTNYQYKIQELRKL [MED7] | 2.25 ± 0.054 | 2.61 ± 0.074 | 2.36 ± 0.074 | 2.69 ± 0.06
